Laboratory results as given in patent US20200031952A1 (CLOSED JOINT STOCK COMPANY BIOCAD, published 2020).

T1: rat IL-17A (rat, UniProt Q61453 18-150, limits assumed)
T1 sequence (looked up): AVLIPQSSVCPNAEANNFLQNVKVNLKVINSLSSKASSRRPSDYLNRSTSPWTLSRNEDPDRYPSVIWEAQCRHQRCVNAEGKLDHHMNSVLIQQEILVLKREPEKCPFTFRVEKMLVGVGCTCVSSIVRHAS

T2: monkey IL-17A (monkey)
T2 chain: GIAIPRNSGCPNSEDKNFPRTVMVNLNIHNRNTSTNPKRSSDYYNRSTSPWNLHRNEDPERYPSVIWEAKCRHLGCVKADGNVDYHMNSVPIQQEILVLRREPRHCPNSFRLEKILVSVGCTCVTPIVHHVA


Experiments:
human IL-17A [1] = target: T3, human IL-17A (human, UniProt Q16552 24-155, limits assumed); assay: cell-based or functional assay
T3 construct: Used as analyte in the Octet tests, as immobilised antigen in ELISA and as cytokine in the HT1080 cell test; also called human recombinant IL-17A; Interleukin 17

rat IL-17A = target: T1, rat IL-17A; assay: BLI (OctetRed 96), BCD109 immobilised on AR2G sensors, IL-17A as analyte
Description: (§1) The test was conducted at a temperature of 30° C. and using PBS with 0.1% Tween-20 and 0.1% BSA as a working buffer.
(§2) Binding curves (after subtracting a reference signal) were analyzed using Octet Data Analysis software (Version 7.0) in accordance with the standard procedure and using 1:1 interaction model.

human IL-17A [2] = target: T3, human IL-17A; assay: BLI (OctetRed 96), BCD109 on AR2G sensors, 1:1 model; analyte 17,1 nM (heading: 'Human ... IL17 Fc'); Full R^2 0,775434
Description: as §1, §2

human IL-17A [3] = target: T3, human IL-17A; assay: BLI (OctetRed 96), BCD109 on AR2G sensors, 1:1 model; analyte 34,3 nM (heading: 'Human ... IL17 Fc'); Full R^2 0,744563
Description: as §1, §2

human IL-17A [4] = target: T3, human IL-17A; assay: BLI (OctetRed 96), BCD109 on AR2G sensors, 1:1 model; analyte 68,6 nM (heading: 'Human ... IL17 Fc'); Full R^2 0,383582
Description: as §1, §2

monkey IL-17A [5] = target: T2, monkey IL-17A; assay: BLI (OctetRed 96), BCD109 on AR2G sensors, 1:1 model; analyte 17,2 nM (heading: 'Macaque ... IL17 Fc'); Full R^2 0,753773
Description: as §1, §2

monkey IL-17A [6] = target: T2, monkey IL-17A; assay: BLI (OctetRed 96), BCD109 on AR2G sensors, 1:1 model; analyte 34,4 nM (heading: 'Macaque ... IL17 Fc'); Full R^2 0,061979
Description: as §1, §2

monkey IL-17A [7] = target: T2, monkey IL-17A; assay: BLI (OctetRed 96), BCD109 on AR2G sensors, 1:1 model; analyte 68,7 nM (heading: 'Macaque ... IL17 Fc'); Full R^2 0,672159
Description: as §1, §2

| IC50, picomole as defined by the cell IL6 test (human IL-17A [1]) [picomole] | Kd (human IL-17A [2]) [pM] | Kd (human IL-17A [3]) [pM] | Kd (human IL-17A [4]) [pM] | Kd (monkey IL-17A [5]) [pM] | Kd (monkey IL-17A [6]) [pM] | Kd (monkey IL-17A [7]) [pM] | Molecule | binding result (rat IL-17A) |
| --- | --- | --- | --- | --- | --- | --- | --- | --- |
| 1100 | – | – | – | – | – | – | AIN457 (anti-IL-17A antibody by Novartis) | – |
| – | 4.4 | < 1 | < 1 | < 1 | < 1 | < 1 | BCD109 (antibody, V domains shown, IgG1, transiently expressed; also called BCD109 antibody; BCD109 candidate; copies: 2 + 2) VH: QVQLVQSGGGLVQAGGSLRLSCAASGGTFATSPMGWLRQAPGKGTEFVAAISPSGGDRIYADSVKGRFTISRDNAGYFIYLQMNSLKPEDTAVYYCAVRRRFDGTSYYTGDYDSWGQGTLVTVSS VL: EIVLTQSPGTLSLSPGERATLSCRASQSVSSSYLAWYQQKPGQAPRLLIYDASSRATGIPDRFSGSGSGTDFTLTISRLEPEDFAVYYCQQYSYSPVTFGQGTKVEIKR | no binding (tested: 126 nM to 2 nM titrated) |
